# Test results as given in publication PMC10328077 (2023).
# B1: recombinant N-terminal fragment apoE2(1–165) (domain or fragment)
# chain: KVEQAVETEPEPELRQQTEWQSGQRWELALGRFWDYLRWVQTLSEQVQEELLSSQVTQELRALMDETMKELKAYKSELEEQLTPVAEETRARLSKELQAAQARLGADMEDVCGRLVQYRGEVQAMLGQSTEELRVRLASHLRKLRKRLLRDADDLQKCLAVYQAG
# modifications: NT647 dye (Monolith RED-NHS labelling kit) in the MST; unlabelled in the ELISA and the cross-linking
# Assays:
# [1] = molecular target: FH402H, isolated from plasma of FH402H homozygous healthy donors (human, UniProt P08603 19-1231, Y402H); experiment: MST
# [2] = molecular target: B1; experiment: MST
Binder,Kd [1],Kd [2]
B1,400 nM,–
"FH402Y, isolated from plasma of FH402Y homozygous healthy donors (natural protein) EDCNELPPRRNTEILTGSWSDQTYPEGTQAIYKCRPGYRSLGNVIMVCRKGEWVALNPLRKCQKRPCGHPGDTPFGTFTLTGGNVFEYGVKAVYTCNEGYQLLGEINYRECDTDGWTNDIPICEVVKCLPVTAPENGKIVSSAMEPDREYHFGQAVRFVCNSGYKIEGDEEMHCSDDGFWSKEKPKCVEISCKSPDVINGSPISQKIIYKENERFQYKCNMGYEYSERGDAVCTESGWRPLPSCEEKSCDNPYIPNGDYSPLRIKHRTGDEITYQCRNGFYPATRGNTAKCTSTGWIPAPRCTLKPCDYPDIKHGGLYHENMRRPYFPVAVGKYYSYYCDEHFETPSGSYWDHIHCTQDGWSPAVPCLRKCYFPYLENGYNQNYGRKFVQGKSIDVACHPGYALPKAQTTVTCMENGWSPTPRCIRVKTCSKSSIDIENGFISESQYTYALKEKAKYQCKLGYVTADGETSGSITCGKDGWSAQPTCIKSCDIPVFMNARTKNDFTWFKLNDTLDYECHDGYESNTGSTTGSIVCGYNGWSDLPICYERECELPKIDVHLVPDRKKDQYKVGEVLKFSCKPGFTIVGPNSVQCYHFGLSPDLPICKEQVQSCGPPPELLNGNVKEKTKEEYGHSEVVEYYCNPRFLMKGPNKIQCVDGEWTTLPVCIVEESTCGDIPELEHGWAQLSSPPYYYGDSVEFNCSESFTMIGHRSITCIHGVWTQLPQCVAIDKLKKCKSSNLIILEEHLKNKKEFDHNSNIRYRCRGKEGWIHTVCINGRWDPEVNCSMAQIQLCPPPPQIPNSHNMTTTLNYRDGEKVSVLCQENYLIQEGEEITCKDGRWQSIPLCVEKIPCSQPPQIEHGTINSSRSSQESYAHGTKLSYTCEGGFRISEENETTCYMGKWSSPPQCEGLPCKSPPEISHGVVAHMSDSYQYGEEVTYKCFEGFGIDGPAIAKCLGEKWSHPPSCIKTDCLSLPSFENAIPMGEKKDVYKAGEQVTYTCATYYKMDGASNVTCINSRWTGRPTCRDTSCVNPPTVQNAYIVSRQMSKYPSGERVRYQCRSPYEMFGDEEVMCLNGNWTEPPQCKDSTGKCGPPPPIDNGDITSFPLSVYAPASSVEYQCQNLYQLEGNKRITCRNGQWSEPPKCLHPCVISREIMENYNIALRWTAKQKLYSRTGESVEFVCKRGYRLSSRSHTLRTTCWDGKLEYPTCAKR",–,200 nM
